Series [1] is described as follows: Fluorescence energy transfer between WMC77 and Alexa 546-labeled nanoparticles. Particulars: WMC77 final concentration 300 nM. It counts as physicochemical.
A short description of series [2]: Multi-angle light scattering, molecular weight of peptide aggregates and degree of aggregation. It counts as physicochemical. Particulars: for MW (g/mol): 0.1 M Tris-HCl pH 7.2. As for the experimental part: To determine the influence of hydrophilic tail length on nanoparticle aggregation, the degree of aggregation was determined by multi-angle light scattering for TM peptides with the amino acid sequences of SEQ ID NO: 1; SEQ ID NO: 1-PEG11; SEQ ID NO: 1-PEG27; SEQ ID NO: 1-PEG38; and SEQ ID NO: 1-GGGGG.
The peptides were dissolved in DMSO and diluted with 0.1 M Tris-HCl buffer (pH 7.2) to provide 0.4 mg/ml peptide solutions. This was used for further dilutions. The final concentration of DMSO was either 2.5% or 1.25% (kept constant for all dilutions in the series). The samples were sonicated at maximum intensity for 10 minutes and left at room temperature overnight (about 20 hours before measurements). The following day, the samples were centrifuged at 13200 rpm for 30 minutes.
Light scattering (LS) studies were performed by a DAWN EOS multi-angle detector (Wyatt Technology Corp., Santa Barbara, Calif.) at a laser wavelength of 690 nm. The LS detector was connected with an Agilent 1100 HPLC system (Agilent Technologies, Palo Alto, Calif.). The MALS detector was calibrated with HPLC grade toluene, 99.8% (Aldrich Chemicals, Milwaukee, Wis.), which was filtered through a […] Anotop-25 inorganic membrane filter and then normalized with albumin (bovine) 98% monomer (Sigma Chemicals, St. Louis, Mo.). The data were collected and processed using Astra software (Wyatt Technology Corp.; version 4.90.04).
To determine the molecular weight of the peptide aggregates and the aggregation state, LS micro-batch measurements were performed. In brief, solvent was delivered through the HPLC system, bypassing the column compartment, at a flow rate of 0.05 ml/min. 900 μl samples with different peptide concentrations were injected through the HPLC autosampler. Four peptide concentrations were analyzed (i.e., 0.05 mg/ml, 0.1 mg/ml, 0.2 mg/ml, and 0.4 mg/ml). The concentrations were determined from weight measurements, since strong light scattering made traditional UV-absorbance determination inaccurate. The LS signal was collected for each concentration. Molecular weight was determined for each concentration separately using Astra software with a Debye plot and the Zimm equation. A single slice of collected signal giving the smallest error was chosen for molecular weight calculation at each concentration.

Series [3] can be described thus: Transmission electron microscopy of peptide nanoparticles. It counts as physicochemical. Particulars: negative charges replaced by positive charges. On the procedure: Peptides were solubilized in DMSO to yield 32 mg/ml solution. DMSO stocks were diluted with phosphate buffered saline (PBS) to produce 0.05-0.5 mg/ml solutions. Two μl of a sample were applied directly on microscopy grids, air-dried, stained with 0.5% (w/v) osmium tetroxide (OsO4), and visualized with a Hitachi H-7000 electron microscope.

Series [4] in a line: WMC77 fluorescence emission with increasing amounts of nanoparticles. It counts as physicochemical. Conditions: increasing amounts of the nanoparticles. As for the experimental part:
FIG. 1 is a graph of fluorescence emission intensity (a.u.) versus concentration (mg/ml) of nanoparticles comprising SEQ ID NO: 1-PEG11 (represented by circles) or SEQ ID NO: 1-PEG38 (represented by open squares).
FIG. 2 is a graph of wavelength maximum (nm) versus concentration (μM) of nanoparticles comprising SEQ ID NO: 1-PEG11 (represented by circles) or SEQ ID NO: 1-PEG38 (represented by open squares).
Various amounts of nanoparticles (SEQ ID NO:1-PEG11 or SEQ ID NO 1-PEG38) were added to solutions of WMC77. The fluorescence emission intensity and shift in emission maxima were measured with the results depicted in FIGS. 1 and 2.

Series [5] concerns MDA-MB-231 breast cancer cells. The experiment in a line: Survival in mouse model of breast cancer lung metastasis. The series is classed as in vivo, nude mice. On the procedure:
FIG. 3 is a graph of percent survival (%) versus days on treatment for three groups of nude mice intravenously injected with one million MDA-MB-231 breast cancer cells. On the day following the intravenous injection with the breast cancer cells and continuing twice weekly, the mice were intraperitoneally injected with (1) PBS only (Control); (2) 3 mg/kg of nanoparticles of SEQ ID NO: 1-PEG27 dissolved in PBS (X4-4-6, 3 mg/kg); or (3) 12 mg/kg of nanoparticles of SEQ ID NO: 1-PEG27 dissolved in PBS (X4-4-6, 12 mg/kg).
One million MDA-MB-231 breast cancer cells were injected in nude mice intraveneously on Day 0. On Day 1 and continuing twice weekly, mice were intraperitoneally injected with (1) 3 mg/kg of nanoparticles of the TM peptide of SEQ ID NO: 1-PEG27 dissolved in PBS; (2) 12 mg/kg of nanoparticles of the TM peptide of SEQ ID NO: 1-PEG27 dissolved in PBS; or (3) a control (PBS only).

Series [6] relates to MDA-231 breast cancer cells. Conditions: mouse, in vivo.
Procedure: A CXCR4-TM domain 2-derived pegylated peptide labeled with Alexa546 fluorescent dye was prepared. […] Ten μl of peptide were diluted with 630 μl PBS (to produce 2 mg/ml peptide solution), sonicated for 10 minutes, and used for intratumoral injection.
Nude mice were inoculated in a breast pad with one million MDA-231 breast cancer cells. Six weeks later, when tumor sizes reached about 5 mm in diameter, 0.1 ml of 2 mg/ml solution of the fluorescent nanoparticles in PBS were injected into a breast pad near the tumor.
Whole animals and excised tumors were imaged utilizing the Maestro 420 In-Vivo Spectral Imaging System (Cambridge Resources and Instrumentation, Inc.).
Where [7] appears, read: aggregate MW at 0.05 mg/ml peptide.
[8] abbreviates: aggregate MW at 0.1 mg/ml peptide.
Where [9] appears, read: aggregate MW at 0.2 mg/ml peptide.
The mark [10] stands for this setting: aggregate MW at 0.4 mg/ml peptide.
The mark [11] stands for this setting: 3 mg/kg intraperitoneally twice weekly.
Where [12] appears, read: 12 mg/kg intraperitoneally twice weekly.

These results are taken from patent US9326950B2, “Self-assembling nanoparticles composed of transmembrane peptides and their application for specific intra-tumor delivery of anti-cancer drugs” (The United States of America, as represented by the …, priority 2006, dated 2016).

Where no end group is shown, it is not given here.

On to `NCCCN1CCN(CCCNc2ccc3ncn4c5ccccc5c(=O)c2c34)CC1` [WMC77, 5-{3-[4-(aminopropyl)-piperazin-1-yl]-propylamino}-2,10b-diaza-aceanthrylen-6-one, reference compound], for which, in series [1] (No TM peptide), the “Fluorescence Intensity (a.u.) of WMC77 solutions” value amounted to 622 a.u.
Regarding LLFVITLPFWAVDAVANWYFGNDD [SEQ ID NO: 1], the figures for the “N, degree of aggregation (molecules per particle)” value in series [2] (0.05 mg/ml peptide), in series [2] (0.1 mg/ml peptide) and in series [2] (0.2 mg/ml peptide) were 4090 molecules per particle, 2478 molecules per particle and 2494 molecules per particle, respectively. Also, the “MW (g/mol)” value in series [2] (setting [7]) is given as 11,400,000 ± 40,000 g/mol; in series [2] (setting [8]) it was 6,906,000 ± 22,000 g/mol; in series [2] (setting [9]), 6,952,000 ± 22,000 g/mol.
For the compound LLFVITLPFWAVDAVANWYFGNKK [SEQ ID NO: 6], the “particle size and uniformity” value in series [3] is reported as “much large particles with highly variable diameters”.
“SEQ ID NO: 1-GGGGG: TM peptide of SEQ ID NO: 1 with polyglycine tail GGGGG (LLFVITLPFWAVDAVANWYFGNDD; C-terminal GGGGG tail)”: the “N, degree of aggregation (molecules per particle)” value was determined as 1614 molecules per particle in series [2] (0.05 mg/ml peptide), 664 molecules per particle in series [2] (0.1 mg/ml peptide), 282 molecules per particle in series [2] (0.2 mg/ml peptide) and 55 molecules per particle in series [2] (0.4 mg/ml peptide). Also, the “MW (g/mol)” value in series [2] (setting [7]) is given as 4,957,000 ± 8,000 g/mol; in series [2] (setting [8]), 2,041,000 ± 4,000 g/mol; in series [2] (setting [9]) it was 865,600 ± 2,700 g/mol; in series [2] (setting [10]) it was 169,700 ± 300 g/mol.
With “SEQ ID NO: 1-PEG11: TM peptide of SEQ ID NO: 1 with hydrophilic oligomer PEG11 added (LLFVITLPFWAVDAVANWYFGNDD; not fully specified; also: PEG11 added)”, the “N, degree of aggregation (molecules per particle)” value in series [2] (0.05 mg/ml peptide) is 743 molecules per particle; in series [2] (0.1 mg/ml peptide) it was 316 molecules per particle; in series [2] (0.2 mg/ml peptide) it was 137 molecules per particle; in series [2] (0.4 mg/ml peptide) it was 54 molecules per particle. For the same compound, the “MW (g/mol)” value is 2,515,000 ± 69,000 g/mol in series [2] (setting [7]), 1,069,000 ± 20,000 g/mol in series [2] (setting [8]), 463,800 ± 6,800 g/mol in series [2] (setting [9]) and 183,200 ± 900 g/mol in series [2] (setting [10]). For the same compound, the “emission maxima of WMC77” value in series [4] is “a shift in emission maxima”. The “fluorescence emission intensity of WMC77” value in series [4] is recorded as “an increase in fluorescence emission intensity”.
Turning to “SEQ ID NO: 1-PEG27: TM peptide of SEQ ID NO: 1 with hydrophilic oligomer PEG27 added; CXCR4 peptide nanoparticles (LLFVITLPFWAVDAVANWYFGNDD; not fully specified; also: PEG27 added)”, the “N, degree of aggregation (molecules per particle)” value is given as 286 molecules per particle in series [2] (0.05 mg/ml peptide), 176 molecules per particle in series [2] (0.1 mg/ml peptide), 167 molecules per particle in series [2] (0.2 mg/ml peptide) and 90 molecules per particle in series [2] (0.4 mg/ml peptide). Moreover, the “MW (g/mol)” value is 1,171,000 ± 190,000 g/mol in series [2] (setting [7]), 719,400 ± 100,700 g/mol in series [2] (setting [8]), 682,000 ± 105,000 g/mol in series [2] (setting [9]) and 367,100 ± 38,400 g/mol in series [2] (setting [10]). Besides, the “survival by Day 75” value in series [5] (setting [11]) is given as “about 40%”; in series [5] (setting [12]), 100%. Also, the “survival by Day 91” value in series [5] (setting [11]) was “no surviving animals”. Also, the body weight entry in series [5] (setting [12]) is “continued to gain weight”. The “survival until the end of the experiment (Day 140)” value in series [5] (setting [12]) is “a significant number of the animals administered 12 mg/kg of nanoparticles survived”.
“SEQ ID NO: 1-PEG38: TM peptide of SEQ ID NO: 1 with PEG38, obtained by sequential coupling of PEG11 and PEG27 (LLFVITLPFWAVDAVANWYFGNDD; also: PEG38 added (PEG11 + PEG27))”: the “N, degree of aggregation (molecules per particle)” value in series [2] (0.1 mg/ml peptide) is 93 molecules per particle; in series [2] (0.2 mg/ml peptide) it was 19 molecules per particle; in series [2] (0.4 mg/ml peptide) it was 24 molecules per particle. Moreover, the results for the “MW (g/mol)” value in series [2] (setting [8]), in series [2] (setting [9]) and in series [2] (setting [10]) were 436,100 ± 20,300 g/mol, 90,950 ± 9,210 g/mol and 110,500 ± 5,600 g/mol, respectively. In addition, the “emission maxima of WMC77” value in series [4] is given as “a shift in emission maxima”. The “fluorescence emission intensity of WMC77” value in series [4] is “an increase in fluorescence emission intensity”.
“SEQ ID NO: 8-PEG27: deletion mutant lacking the five N-terminal amino acid residues of SEQ ID NO: 1, with PEG27 (TLPFWAVDAVANWYFGNDD; not fully specified; also: PEG27 added)”: the “N, degree of aggregation (molecules per particle)” value in series [2] (0.1 mg/ml peptide) was determined as 9 molecules per particle; in series [2] (0.2 mg/ml peptide), 10 molecules per particle; in series [2] (0.4 mg/ml peptide), 10 molecules per particle. The results for the “MW (g/mol)” value in series [2] (setting [8]), in series [2] (setting [9]) and in series [2] (setting [10]) were 29,550 ± 4,630 g/mol, 32,660 ± 6,730 g/mol and 34,520 ± 7,850 g/mol, respectively.
For the compound “TM peptide-Alexa conjugate: CXCR4-TM domain 2-derived pegylated peptide SEQ ID NO: 1-Peg11-Hcy-Peg27 labeled with Alexa546 fluorescent dye (LLFVITLPFWAVDAVANWYFGNDD; also: Peg11-Hcy-Peg27 attached, Alexa546 label)”, in series [1] (with additive), the “Fluorescence Intensity (a.u.) of WMC77 solutions” value was determined as 295 a.u. In addition, the “penetration of tumor vasculature” value in series [6] is reported as “effectively penetrate tumor vasculature”.
